Experimental data: article PMC12001115, “Double prenylation of budding yeast Ykt6 regulates cell wall integrity and autophagy” (The Journal of Biological Chemistry, 2025)

Biological target: T1, Ecm9 (recombinant, subunit of yeast GGT3) (budding yeast (S. cerevisiae), UniProt Q02202 1-377)
T1 construct: Ecm9, budding yeast; no tag is named for this chain; also called recombinant yeast GGT3 α subunit
T1 sequence (looked up): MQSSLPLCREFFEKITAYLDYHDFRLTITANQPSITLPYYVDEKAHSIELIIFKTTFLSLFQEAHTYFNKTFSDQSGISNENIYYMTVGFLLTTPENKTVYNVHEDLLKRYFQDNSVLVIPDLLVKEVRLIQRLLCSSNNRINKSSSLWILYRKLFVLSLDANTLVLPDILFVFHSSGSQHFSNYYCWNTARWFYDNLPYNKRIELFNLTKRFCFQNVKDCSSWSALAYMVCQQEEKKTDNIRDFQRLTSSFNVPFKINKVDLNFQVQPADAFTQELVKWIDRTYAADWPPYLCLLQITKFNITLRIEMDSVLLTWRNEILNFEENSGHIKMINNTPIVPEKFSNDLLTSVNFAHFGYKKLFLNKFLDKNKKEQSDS
Experiment: SEC; Ecm9 and GST-Bet2 co-expressed in ExpiSf cells and co-purified (glutathione Sepharose, GST cleaved, MonoQ), then Superdex 200 Increase gel filtration in buffer A (50 mM HEPES-KOH pH 7.4, 50 mM NaCl, 5 mM MgCl2, 1 mM DTT); SDS-PAGE with Coomassie staining
Details: both partners purified

binding result: binds
B1: Bet2 (recombinant, subunit of yeast GGT3) (natural protein, budding yeast (S. cerevisiae), UniProt P20133 1-325, looked up)
chain: MSGSLTLLKEKHIRYIESLDTKKHNFEYWLTEHLRLNGIYWGLTALCVLDSPETFVKEEVISFVLSCWDDKYGAFAPFPRHDAHLLTTLSAVQILATYDALDVLGKDRKVRLISFIRGNQLEDGSFQGDRFGEVDTRFVYTALSALSILGELTSEVVDPAVDFVLKCYNFDGGFGLCPNAESHAAQAFTCLGALAIANKLDMLSDDQLEEIGWWLCERQLPEGGLNGRPSKLPDVCYSWWVLSSLAIIGRLDWINYEKLTEFILKCQDEKKGGISDRPENEVDVFHTVFGVAGLSLMGYDNLVPIDPIYCMPKSVTSKFKKYPYK
notes: Bet2, budding yeast; also called GST-BET2; recombinant yeast GGT3 β subunit; not shown: GST, N-terminal, cleaved
